Experiment: soluble fraction after stress (log2 fold change); higher = more stays soluble; pooled small domains, quantitative proteomics
Details: stress: 50 degC
Outline: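 The stress applied to every library was 50°C. These custom libraries of small protein domains were pooled and measured at high throughput with quantitative proteomics as the read-out. Aggregation propensity is expressed as the base-two logarithm of the fold change in how much of each protein remains soluble. The higher the value, the more of that protein stays in solution.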

Sequence | soluble fraction (log2)
HMKKAMIISTKRGTPAAELDKIIREFEAKGLSVTMIRGTDYNVFGLVGDTTVIDEKQVRANPYVENVQRV | 0.135
HMKKATYDVMVREALVSFKKKGATLQSIKKKIKADYAIEANATAVKSAIQKGMEAGSIRKSYDLYFFMD | -2.12
HMKKDDLKQINGIGTTIEKKLNEIDIYNFYQISNLSKEDIETISEKIKTFPGKIERDNWVGQAQELL | 0.0191
HMKKIFIDAPLDTMITIPKDTTHHLLTVFRHKMEKPVLVGGSDGRTGVYQIQDVVDGEASAKLVGDIQ | 0.514
HMKKISAKQQQILDYISSYSLEHGYPPSVREIGAEMGLRSPSTVHAHLKKLQEAGYLEPNEHKSRALTP | 0.128
HMKKITTANPLDINRATLAQLDTLPGIGPVTAERIIAYRSKVGRINSLDELKKISGLGGMKFEEIKPLLRV | 0.042
HMKKKLPRYLQEQKYGNGMVFYRYNPTARYIDEGIVTRTNLGSDLSIAKKKANEFNKLIDAFLQQQSE | -0.92
HMKKMSFKEAFLKYVEIKDNPYNMESVKMLVSLQPLIVKAYSILGVDKVRRLNYVKTKIQDAIINGD | -1.9
HMKKNLELGLLPHEVKSILGEPDFIDTITDIDGIRYDMWSYTKLNVTKRLYFEDLFLVRMEE | -1.43
HMKKNNTTPIPKTLNYVNIKGLSNEAVERLNKHKPSTLGQASRLEGITPAATSLISIAIKKNQLLEKAES | 0.251
HMKKPAERRKELVDAAAHLFAEKGYENTSVRDILDAVGGAPGMFYYYFKSKQDIYVAVMEDF | -3.54
HMKKPANLISEDRMVEVLYDVIIINTAKGVNKQLLQNNINNPLNYIYRSHGIDSLQFAESNAYYTS | -0.371
HMKKSGFFSAGDRIQLTDNKGRQYSFNITEGKEFHTHQGFIKHDDLIGMPEGSVVSINSTTGVVQKFMAF | -0.164
HMKKSIRIFELMKAKVAAEIFDQMILEGKIEDVFDIIVRLKDSNVSNIMKTMSVENSSRLVQKLERYNKD | -2.18
HMKKVRIPDDPEEAYRKALKTAMNIVGYKDNTEFTLREKLSERGYSGETVDAVAEFMKSKGYV | 0.245
HMKKVTMQDIANILNISRVTVWKVLNNQPGVSKQLRDQILLTAKETGYLKPGQEAEAYLEENNIYFEG | 0.176
HMKKYDIKEAQEIAEINRIPGLVTTSHGRRVYFDPKIMQYVSEEQIVKKYGQKTVKMLDQWYVSNILNK | -0.0388
HMKKYLIIDAANEKIIFKIIDNNKTYTNDYENSRKNFDRFAVLLFNFLNKNMISFDTIDKAL | -0.0864
HMKLARGEFEIMAKFIKEISGISLEQNKTYLIESRLSDLAESEGVKTFSDFFFKAKFNKILKEKIIDAI | -0.946
HMKLHFTINGVHYTWYKQFIRGIQIRELGNIPREDELYLDLPDGWKDDFIEDDEIVDLARPGVEHFISRAK | -1.78
HMKLIIVPNLVGQSRRSVEISLQQIGLRIDTVYTEFNPDYPKGTVAWQFPKSGDHIKKGMGLQITVSQG | -0.522
HMKLINEDLNNEIVFEENKVNLLVIENKKKFVQFIQEIIKQINGDEGKFSLFDINTELKIHDKIDII | 0.185
HMKLIPLTDMRGQLRSGAPLPWGVRDAQGNLLLGKGHVIASDDMLEALLARGMFVDAEEAKAARG | 0.00271
HMKLISVAVMRASDAAEIAGGTDSKTLMYRAGLGLFQSWDWHGKIDIVTGSGNNAGDGYVLALLL | -0.0519
HMKLNKRQYAYQVIRSRILDGTYVPGQRIIIDQIAKEVNSSHIPVREAIHQLESEQLIDYEPNIGAIVKG | 0.285
HMKLSALRDKIKEHLLRQIQNGELQVGKTINLAALSRVTGISVTPIREALTQLEQAQVIQAVPNRGFVVA | 0.00526
HMKLSIGGTIEKLRRNKGLSHQQLANALGVTPDTVEKWEINAAYPDITLLSPIARLLGTTLDALLMF | -0.649
HMKLSKLTKPELDEIFRNANFTEEEEKVFWLLARGKSLEQISAKTFLPIATVNRRVKSIKDKIG | 0.0605

Source: the domain aggregation screens of Martell et al. (2025)
